Data taken from patent publication US20260042834A1 (HBM ALPHA THERAPEUTICS, published 2026).

Molecular target: T1, biotinylated CRH (human and mouse, not fully specified; biotinylated, position not stated)
T1 construct: also called Biotin-CRH; biotin-labeled CRH
T1 peptide: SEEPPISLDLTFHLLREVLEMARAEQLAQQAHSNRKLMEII
Test: Octet BLI, biotinylated CRH on SA sensor
Procedure: Octet® Red 96e was used for affinity measurement. Octet® running buffer was prepared by diluting kinetics buffer 10× (Fortebio, Cat #18-1105) in PBS according to the manufacturer's instructions. Two columns of SA sensors (Fortebio, Cat #18-5019) were hydrated in running buffer for 10 mins, one for ligand capturing and the other for reference. Antibodies were 2-fold diluted and added into a 96-well plate. […] After a 60-second baseline step, sensors were dipped into analyte and buffer wells successively, with the association and dissociation time of 180 seconds and 800 seconds, respectively. […] Signals of reference wells and reference sensors were subtracted by selecting “Double reference” before data fitting.

B1: PR005656 (antibody, human IgG1, kappa, V domains shown)
VH: EVQLVESGGVLVQPGGSLRLSCAASGFTFSSYWMTWVRQAPGKGLEWVANIKQEGSEKYYVDSVKGRFTISRDNAKNSLFLQMNSLRAEDTAVYYCARTLIFDYWGQGTLVTVSS
VL: DIVMTQSPLSLPVTPGEPASISCRSSQSLLHSTGYNSLEWYLQKPGQSPQLLIYLGSNRASGVPDRFSGSGSGTDFTLKISRVEAEDVGIYYCMQTLQTPITFGQGTRLEIKR
notes: PTM-removal variant of PR004290
B1 was tested, and the Kd was 0.0627 nM, the koff was 4.55e-05 s⁻¹ and the kon was 726000 M⁻¹ s⁻¹.

B2: PR005657 (antibody, human IgG1, kappa, V domains shown)
VH: EVQLVESGGVLVQPGGSLRLSCAASGFTFSSYWMTWVRQAPGKGLEWVANIKQDASEKYYVDSVKGRFTISRDNAKNSLFLQMNSLRAEDTAVYYCARTLIFDYWGQGTLVTVSS
VL: DIVMTQSPLSLPVTPGEPASISCRSSQSLLHSTGYNSLEWYLQKPGQSPQLLIYLGSNRASGVPDRFSGSGSGTDFTLKISRVEAEDVGIYYCMQTLQTPITFGQGTRLEIKR
notes: as for B1
B2 was tested, and the Kd was 0.0913 nM.

B3: PR005658 (antibody, human IgG1, kappa, V domains shown)
VH: EVQLVESGGVLVQPGGSLRLSCAASGFTFSSYWMTWVRQAPGKGLEWVANIKQDGSEKYYVDSVKGRFTISRDNAKNSLFLQMNSLRAEDTAVYYCARTLIFDYWGQGTLVTVSS
VL: DIVMTQSPLSLPVTPGEPASISCRSSQSLLHSTGYQSLEWYLQKPGQSPQLLIYLGSNRASGVPDRFSGSGSGTDFTLKISRVEAEDVGIYYCMQTLQTPITFGQGTRLEIKR
notes: as for B1
B3 showed a Kd of 0.179 nM, a koff of 9.11e-05 s⁻¹ and a kon of 509000 M⁻¹ s⁻¹.

B4: PR005662 (antibody, human IgG1, kappa, V domains shown)
VH: EVQLVESGGVLVQPGGSLRLSCAASGFTFSSYWMTWVRQAPGKGLEWVANIKQDASEKYYVDSVKGRFTISRDNAKNSLFLQMNSLRAEDTAVYYCARTLIFDYWGQGTLVTVSS
VL: DIVMTQSPLSLPVTPGEPASISCRSSQSLLHSTGYQSLEWYLQKPGQSPQLLIYLGSNRASGVPDRFSGSGSGTDFTLKISRVEAEDVGIYYCMQTLQTPITFGQGTRLEIKR
notes: as for B1
In the case of B4, the Kd is reported as 0.209 nM, the koff is reported as 8.27e-05 s⁻¹ and the kon is reported as 396000 M⁻¹ s⁻¹.

B5: PR006142 (antibody, human IgG1, kappa, V domains shown)
VH: EVQLVESGGVLVQPGGSLRLSCAASGFTFSSYWMTWVRQAPGKGLEWVANIKQEGSEKYYVDSVKGRFTISRDNAKNSLFLQMNSLRAEDTAVYYCARTLIFDYWGQGTLVTVSS
VL: DIVMTQSPLSLPVTPGEPASISCRSSQSLLHSTGYDSLEWYLQKPGQSPQLLIYLGSNRASGVPDRFSGSGSGTDFTLKISRVEAEDVGIYYCMQTLQTPITFGQGTRLEIKR
notes: as for B1
B5 was tested, and the Kd was 0.123 nM, the koff was 4.08e-05 s⁻¹ and the kon was 333000 M⁻¹ s⁻¹.

B6: PR006143 (antibody, human IgG1, kappa, V domains shown)
VH: EVQLVESGGVLVQPGGSLRLSCAASGFTFSSYWMTWVRQAPGKGLEWVANIKQEGSEKYYVDSVKGRFTISRDNAKNSLFLQMNSLRAEDTAVYYCARTLIFDYWGQGTLVTVSS
VL: DIVMTQSPLSLPVTPGEPASISCRSSQSLLHSTGYHSLEWYLQKPGQSPQLLIYLGSNRASGVPDRFSGSGSGTDFTLKISRVEAEDVGIYYCMQTLQTPITFGQGTRLEIKR
notes: as for B1
B6 showed a Kd of 0.0623 nM, a koff of 2.85e-05 s⁻¹ and a kon of 457000 M⁻¹ s⁻¹.

B7: PR006144 (antibody, human IgG1, kappa, V domains shown)
VH: EVQLVESGGVLVQPGGSLRLSCAASGFTFSSYWMTWVRQAPGKGLEWVANIKQEGSEKYYVDSVKGRFTISRDNAKNSLFLQMNSLRAEDTAVYYCARTLIFDYWGQGTLVTVSS
VL: DIVMTQSPLSLPVTPGEPASISCRSSQSLLHSTGYNPLEWYLQKPGQSPQLLIYLGSNRASGVPDRFSGSGSGTDFTLKISRVEAEDVGIYYCMQTLQTPITFGQGTRLEIKR
notes: as for B1
Binder B7 has a Kd of 0.0895 nM, a koff of 4.47e-05 s⁻¹ and a kon of 499000 M⁻¹ s⁻¹.

B8: PR006145 (antibody, human IgG1, kappa, V domains shown)
VH: EVQLVESGGVLVQPGGSLRLSCAASGFTFSSYWMTWVRQAPGKGLEWVANIKQEGSEKYYVDSVKGRFTISRDNAKNSLFLQMNSLRAEDTAVYYCARTLIFDYWGQGTLVTVSS
VL: DIVMTQSPLSLPVTPGEPASISCRSSQSLLHSTGYSSLEWYLQKPGQSPQLLIYLGSNRASGVPDRFSGSGSGTDFTLKISRVEAEDVGIYYCMQTLQTPITFGQGTRLEIKR
notes: as for B1
B8 showed a Kd of 0.305 nM, a koff of 6.75e-05 s⁻¹ and a kon of 222000 M⁻¹ s⁻¹.

B9: PR006146 (antibody, human IgG1, kappa, V domains shown)
VH: EVQLVESGGVLVQPGGSLRLSCAASGFTFSSYWMTWVRQAPGKGLEWVANIKQDASEKYYVDSVKGRFTISRDNAKNSLFLQMNSLRAEDTAVYYCARTLIFDYWGQGTLVTVSS
VL: DIVMTQSPLSLPVTPGEPASISCRSSQSLLHSTGYDSLEWYLQKPGQSPQLLIYLGSNRASGVPDRFSGSGSGTDFTLKISRVEAEDVGIYYCMQTLQTPITFGQGTRLEIKR
notes: as for B1
Binder B9 has a Kd of 0.109 nM, a koff of 4.84e-05 s⁻¹ and a kon of 445000 M⁻¹ s⁻¹.

B10: PR006147 (antibody, human IgG1, kappa, V domains shown)
VH: EVQLVESGGVLVQPGGSLRLSCAASGFTFSSYWMTWVRQAPGKGLEWVANIKQDASEKYYVDSVKGRFTISRDNAKNSLFLQMNSLRAEDTAVYYCARTLIFDYWGQGTLVTVSS
VL: DIVMTQSPLSLPVTPGEPASISCRSSQSLLHSTGYHSLEWYLQKPGQSPQLLIYLGSNRASGVPDRFSGSGSGTDFTLKISRVEAEDVGIYYCMQTLQTPITFGQGTRLEIKR
notes: as for B1
B10 showed a Kd of 0.142 nM, a koff of 6.96e-05 s⁻¹ and a kon of 489000 M⁻¹ s⁻¹.

B11: PR006148 (antibody, human IgG1, kappa, V domains shown)
VH: EVQLVESGGVLVQPGGSLRLSCAASGFTFSSYWMTWVRQAPGKGLEWVANIKQDASEKYYVDSVKGRFTISRDNAKNSLFLQMNSLRAEDTAVYYCARTLIFDYWGQGTLVTVSS
VL: DIVMTQSPLSLPVTPGEPASISCRSSQSLLHSTGYNPLEWYLQKPGQSPQLLIYLGSNRASGVPDRFSGSGSGTDFTLKISRVEAEDVGIYYCMQTLQTPITFGQGTRLEIKR
notes: as for B1
For B11, the Kd was 0.106 nM.

B12: PR006149 (antibody, human IgG1, kappa, V domains shown)
VH: EVQLVESGGVLVQPGGSLRLSCAASGFTFSSYWMTWVRQAPGKGLEWVANIKQDASEKYYVDSVKGRFTISRDNAKNSLFLQMNSLRAEDTAVYYCARTLIFDYWGQGTLVTVSS
VL: DIVMTQSPLSLPVTPGEPASISCRSSQSLLHSTGYSSLEWYLQKPGQSPQLLIYLGSNRASGVPDRFSGSGSGTDFTLKISRVEAEDVGIYYCMQTLQTPITFGQGTRLEIKR
notes: as for B1
Binder B12 has a Kd of 0.16 nM, a koff of 7.78e-05 s⁻¹ and a kon of 487000 M⁻¹ s⁻¹.

B13: PR006150 (antibody, human IgG1, kappa, V domains shown)
VH: EVQLVESGGVLVQPGGSLRLSCAASGFTFSSYWMTWVRQAPGKGLEWVANIKQDSSEKYYVDSVKGRFTISRDNAKNSLFLQMNSLRAEDTAVYYCARTLIFDYWGQGTLVTVSS
VL: DIVMTQSPLSLPVTPGEPASISCRSSQSLLHSTGYDSLEWYLQKPGQSPQLLIYLGSNRASGVPDRFSGSGSGTDFTLKISRVEAEDVGIYYCMQTLQTPITFGQGTRLEIKR
notes: as for B1
B13 showed a Kd of 0.102 nM, a koff of 5.66e-05 s⁻¹ and a kon of 555000 M⁻¹ s⁻¹.

B14: PR006151 (antibody, human IgG1, kappa, V domains shown)
VH: EVQLVESGGVLVQPGGSLRLSCAASGFTFSSYWMTWVRQAPGKGLEWVANIKQDSSEKYYVDSVKGRFTISRDNAKNSLFLQMNSLRAEDTAVYYCARTLIFDYWGQGTLVTVSS
VL: DIVMTQSPLSLPVTPGEPASISCRSSQSLLHSTGYHSLEWYLQKPGQSPQLLIYLGSNRASGVPDRFSGSGSGTDFTLKISRVEAEDVGIYYCMQTLQTPITFGQGTRLEIKR
notes: as for B1
B14 was tested, and the Kd was 0.16 nM, the koff was 8e-05 s⁻¹ and the kon was 500000 M⁻¹ s⁻¹.

B15: PR006153 (antibody, human IgG1, kappa, V domains shown)
VH: EVQLVESGGVLVQPGGSLRLSCAASGFTFSSYWMTWVRQAPGKGLEWVANIKQDSSEKYYVDSVKGRFTISRDNAKNSLFLQMNSLRAEDTAVYYCARTLIFDYWGQGTLVTVSS
VL: DIVMTQSPLSLPVTPGEPASISCRSSQSLLHSTGYSSLEWYLQKPGQSPQLLIYLGSNRASGVPDRFSGSGSGTDFTLKISRVEAEDVGIYYCMQTLQTPITFGQGTRLEIKR
notes: as for B1
With B15 the Kd was 0.171 nM, the koff was 8.36e-05 s⁻¹ and the kon was 487000 M⁻¹ s⁻¹.

B16: PR302334-10 (antibody, human IgG1, kappa, V domains shown)
VH: EVQLVESGGGLVQPGGSLRLSCAASGFTFSTYAMSWVRQAPGKGLEWVASIRSGGTTYYPDSVKGRFTISRDNSKNTLYLQMNSLRAEDTAVYYCTRGIDWGQGTTVTVSS
VL: DIVMTQSPDSLAVSLGERATINCKASQSVNNDVAWYQQKPGQPPRLLIYYASNRYTGVPDRFSGSGSGTDFTLTISSLQAEDLAVYFCQQDYSSWTFGGGTKVEIKR
notes: Humanized variant of PR302334
For B16, the Kd was less than 0.001 nM, the koff was less than 1e-07 s⁻¹ and the kon was 6840 M⁻¹ s⁻¹.

B17: PR302334-8 (antibody, human IgG1, kappa, V domains shown)
VH: EVQLVESGGGLVQPGGSLRLSCAASGFTFSTYAMSWVRQAPGKGLEWVASIRSGGTTYYPDSVKGRFTISRDNSKNTLYLQMNSLRAEDTAVYYCTRGIDWGQGTTVTVSS
VL: EIVMTQSPATLSVSPGERATLSCKASQSVNNDVAWYQQKPGQAPRLLIYYASNRYTGIPARFSGSGSGTEFTLTISSLQSEDLAVYFCQQDYSSWTFGGGTKVEIKR
notes: Humanized variant of PR302334
B17 gave a Kd of less than 0.001 nM, a koff of less than 1e-07 s⁻¹ and a kon of 14700 M⁻¹ s⁻¹.

B18: PR302334-24 (antibody, human IgG1, kappa, V domains shown)
VH: EVQLVESGGGLVKPGGSLRLSCAASGFTFSTYAMSWVRQAPGKGLEWVASIRSGGTTYYPDSVKGRFTISRDNAKNSLYLQMNSLRAEDTAVYYCTRGIDWGQGTTVTVSS
VL: DIVMTQSPDSLAVSLGERATINCKASQSVNNDVAWYQQKPGQPPRLLIYYASNRYTGVPDRFSGSGSGTDFTLTISSLQAEDLAVYFCQQDYSSWTFGGGTKVEIKR
notes: Humanized variant of PR302334
B18 was tested, and the Kd was less than 0.001 nM, the koff was less than 1e-07 s⁻¹ and the kon was 606000 M⁻¹ s⁻¹.

B19: PR006669 (antibody, human IgG1, kappa, V domains shown)
VH: EVQLVESGGGLVQPGGSLRLSCAASGFTFSDNWMSWVRQAPGKGLEWVANIKQDGSENYYVDSVKGRFTISRDNAKNSLYLQMNSLRAEDTAVYYCSRGLALWGWGQGTLVTVSS
VL: DIVMTHSPLSLPVTPGDPASISCRSSQSLLHSTGYNYLDWYLQKPGQSPQLLIYLGSNRASGVPDRFSGSGSGTDFTLKFIRVEAEDVGVYYCMQALQTPYTFGQGTKLEIKR
notes: Series 2; human IgG1 wildtype Fc; also called Hybridoma Clone 52g7
In the case of B19, the Kd is reported as 0.12 nM.
